# Measured values from PMC5687031 (Molecular Biology of the Cell, 2017).
# T1: Spc110^891-944 (S. cerevisiae, UniProt P32380 891-944)
# T1 sequence (looked up): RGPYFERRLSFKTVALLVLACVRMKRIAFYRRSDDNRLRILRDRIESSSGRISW
# B1: Kluyveromyces lactis calmodulin (natural protein)
# chain: not shown
# modifications: disulfide between Cys79 of the two calmodulins in the crystal
# Assays:
# [1] = molecular target: T1, Spc110^891-944; experiment: SAXS
# [2] = molecular target: T1, Spc110^891-944; experiment: crystal structure
# [3] = molecular target: the molecule itself; experiment: crystal structure
binder,measurement,setting,value
B1,stoichiometry N,[1],1 calmodulin per Spc110^891-944
same,stoichiometry N,[2],1 calmodulin per Spc110 CBD (2:2)
same,stoichiometry N,[3],2 calmodulin chains
